The target in assay [1] is Crotalus durissus terrificus venom. In words: ELISA, venom coat, undiluted.
For assay [2] the target is unchanged. The assay can be described thus: ELISA, venom coat, dilution 1:5.
For assay [3] the target is unchanged. In words: ELISA, venom coat, dilution 1:25. On the technique in general: An ELISA detects its analyte on a solid surface through an enzyme-linked reagent.
For assay [4] the target is unchanged. In words: ELISA, venom coat, dilution 1:25. This is another data set of the same source.
The target is the same in assay [5]. The assay can be described thus: ELISA, venom coat, dilution 1:125.
For assay [6] the target is unchanged. In words: ELISA, venom coat, dilution 1:625.
Assay [7] shares this target. In words: ELISA, venom coat, dilution 1:125. This is another data set of the same source.
Assay [8] has the same target. In words: ELISA, venom coat, dilution 1:625. The source holds these as a separate data set.
For assay [9] the target is unchanged. The assay can be described thus: ELISA, venom coat, dilution 1:3125.
Assay [10] shares this target. The assay can be described thus: ELISA, venom coat, dilution 1:3125. The source holds these as a separate data set.
Assay [11] shares this target. In words: ELISA, venom coat, dilution 1:62,500.
Assay [12] shares this target. In words: ELISA, venom coat, dilution 1:312,500.

On to “Preimmune IgY (egg yolk antibody of unimmunized hens)”, for which the ELISA absorbance in [1] was 0.003 absorbance; in [2] it was under 0 absorbance; in [3], 0.016 absorbance; in assay [4], 0 absorbance; in assay [5] it was under 0 absorbance; in [6], under 0 absorbance. The ELISA absorbance in assay [7] was 0.003 absorbance; in [8] it was 0 absorbance; in [9], under 0 absorbance; in [10], 0.002 absorbance. Further, the figures for the ELISA absorbance (412 nm) in assay [11] and in assay [12] were 0.001 absorbance and 0.01 absorbance, respectively.

(Values after patent US20040219637A1.)
